From US20150118184A1 (Chugai, published 2015)
Residue numbers refer to the chain shown, from its start.

Legend:
[1] = target: T1, LAMP5 (endogenous, on KHM-1B multiple myeloma cells and in cancer cell line lysates) (human, UniProt Q9UJQ1 30-280); assay: FACS on KHM-1B cells with or without IL-6 stimulation, 10 µg/mL antibody
T1 construct: Endogenous LAMP5 of the cell lines; also called BAD-LAMP; C20orf103
T1 sequence: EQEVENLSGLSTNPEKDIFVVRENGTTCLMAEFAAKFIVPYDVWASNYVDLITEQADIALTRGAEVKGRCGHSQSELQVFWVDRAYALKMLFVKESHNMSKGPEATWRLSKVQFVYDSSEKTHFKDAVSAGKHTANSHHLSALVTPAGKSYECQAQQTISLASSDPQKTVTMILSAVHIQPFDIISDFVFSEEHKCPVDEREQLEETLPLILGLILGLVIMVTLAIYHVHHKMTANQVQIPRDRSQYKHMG
Experimental: (§1) Binding of the anti-LAMP5 monoclonal antibody produced in Example 2 to LAMP5 and mLAMP5 was evaluated by FACS. First, LAMP5 CHO (Example 2) or mLAMP5 CHO was suspended in FACS/PBS (PBS(−) comprising 0.2% bovine serum albumin (BSA) and 0.1% sodium azide) followed by disseminating into the wells of a 96-well round bottom plate at 5×10⁴ cells per well. After adding anti-LAMP5 monoclonal antibody to each well to a final concentration of 10, 2, 0.4, 0.08 or 0.016 μg/ml, the mixture was allowed to react for 1 hour on ice. After reacting, the cell suspensions were washed with FACS/PBS and allowed to react for 1 hour with FITC-labeled anti-mouse IgG antibody on ice. After reacting, the cells were washed with FACS/PBS and then suspended in FACS/PBS comprising 10 μg/ml of propidium iodide (Sigma-Aldrich Co. LLC.). The staining intensity of the cells was measured with a flow cytometer. Only viable cells not stained with propidium iodide were used in data analysis. As a result, clones D1, D2, D9 and D10 all bound concentration-dependently to LAMP5 (FIG. 2A). Clones D1, D2 and D10 in particular bound strongly in comparison with clone D9 (FIG. 2A). […] Clone D10 only bound weakly to mLAMP5 (FIG. 2B).
Next, LAMP5 expression was measured by FACS in KHM-1B cells (with or without IL-6 stimulation). FACS was carried out in the same manner as Example 4 using anti-LAMP5 monoclonal antibodies D1, D2, D9 and D10 and a negative reference in the form of IgG1κ (Pharmingen Inc., Cat. No. 553447) at concentrations of 10 μg/mL. As a result, LAMP5 was detected on the cell membrane of KHM-1B cells, and the expressed amount thereof was confirmed to be increased by IL-6 stimulation (FIG. 4).

[2] = target: T2, mouse LAMP5 having a V5 tag added to the N-terminal thereof, expressed on CHO cells (mLAMP5 CHO) (mouse, UniProt Q9D387 30-280); assay: FACS on mLAMP5 CHO cells, FITC anti-mouse IgG
T2 construct: also called mouse-origined LAMP5; V5-mLAMP5
T2 sequence: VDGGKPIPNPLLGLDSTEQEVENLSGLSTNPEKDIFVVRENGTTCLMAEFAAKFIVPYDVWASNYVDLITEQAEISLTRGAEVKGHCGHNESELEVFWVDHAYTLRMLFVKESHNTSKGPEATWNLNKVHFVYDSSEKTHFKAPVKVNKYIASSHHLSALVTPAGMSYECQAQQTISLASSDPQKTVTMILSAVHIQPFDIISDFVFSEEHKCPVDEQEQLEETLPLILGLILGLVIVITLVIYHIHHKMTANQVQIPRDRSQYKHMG
Experimental: as §1

B1: anti-LAMP5 monoclonal antibody D2 (antibody, mouse IgG1, V domains shown)
VH: EVKLEESGGGLVQPGGSMKLSCTASGFTFSDAWMDWVRQSPEKGLEWVAEIRGKADNHATYYAESVKGRFTISRDDSKSSVYLQMNSLRTEDTAIYYCIPYYRYAMDYWGQGTSVTVSS
VL: QIVLTQSPAIMSASPGEKVTITCTASSSVSYMHWFQQKPGTSPKLWIYATSYLASGVPTRFSGSGSGTSYSLTISRMEAEDAATYYCQQKSNYPWTFGGGTNLEIK
notes: also called clone D2; D2 antibody
B1: binds [1].

B2: anti-LAMP5 monoclonal antibody D1 (antibody, mouse IgG1, V domains shown)
VH: EIQLQQSGPDLVKPGASVKVSCKASGFAFSTYNMYWVKQSHGKSLEWIGYIDPYNGDITYNQKFKGKATLTVDKSSSTAYMHLNSLTSEDSAVYYCARRDYFYAMDYWGQGTSVTVSS
VL: DIVMTQSHKFMSTSVGDRVSITCKASQGVGTAVAWYQQKPGQSPKLLIYWASTRHTGVPDRFTGSGSGTDFTLSVTNVQSEDLADYFCHQYSSYPLTFGSGTKLELK
notes: also called clone D1; D1 antibody
B2: no binding (tested: 10 µg/ml (highest concentration tested)) [2]; binds [1].

B3: anti-LAMP5 monoclonal antibody D10 (antibody, V domains shown)
VH: B2 VH with D10E, F27Y, S30T, T31S, D57G, T59S
VL: B2 VL with S74T, V75I, H89Q
notes: also called clone D10; D10 antibody
B3: binds [1].

B4: anti-LAMP5 monoclonal antibody D9 (antibody, V domains shown)
VH: EVKLVESGGGLVKPGGSLKLSCAASGFTFSSYAMSWVRQTPEKRLEWVASISSGGSTYYPDSVKGRFTISRDNARNILYLQMSSLRSEDTAMYYCARLITTRFAYWGQGTLVTVSA
VL: ENVLTQSPAIMSASPGEKVTMTCRASSSVSSSYLHWYQQKSGASPKLWIYSTSNLASGVPARFSGSGSGTSYSLTISSVEAEDAATYYCQQYSGYPLTFGSGTKLEIK
notes: also called clone D9; D9 antibody
B4: no binding (tested: 10 µg/ml (highest concentration tested)) [2]; binds [1].
